In the supplement of paper PMC12042874:
± gives the uncertainty stated by the source.

Test: amyloid nucleation score (Sup35N fusion, yeast selection) (log enrichment); library NNK3; higher = more nucleation; inactive = no reads after selection
Outline: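 DiMSum was used to calculate nucleation scores as log enrichment of output over input reads, centred on the mode score of non-aggregating sequences. Sequences with fewer than 100 input reads were not scored. Input and output came from Illumina sequencing of plasmid inserts in psi-negative yeast expressing peptides of 20 random codons fused to Sup35N, induced 24 hours with 100 μM copper sulfate and then grown 7 days at 30°C on medium lacking adenine and uracil.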

Amyloid nucleation score, 1.01 ± 0.11:
CRCNVSLGILFKRGMSKRRI

Amyloid nucleation score, -0.116 ± 0.9:
TSFSYNLGTISDRCVWILAD

Amyloid nucleation score, 1.01 ± 0.085:
DLNIKYMVWACTSVRDCRYY

Amyloid nucleation score, 0.595 ± 0.18:
LCYTPRGNKFTHLKW

Amyloid nucleation score, 0.07 ± 0.46:
ILSLTFCVRRGEHGMASFCL

Amyloid nucleation score, 0.496 ± 0.34:
YVAYFSGIVLMHHSRDIQFP

Amyloid nucleation score, 1.04 ± 0.21:
NNIFWMRFMFDPWRR

Amyloid nucleation score, 0.819 ± 0.11:
MKVNKLRTMPCNINWQFCLP

Amyloid nucleation score, 1.96 ± 0.083:
FFADGARVYFANHVSKAFWF

Amyloid nucleation score, 0.863 ± 0.22:
LSGVSWKLCVYCFTVRGAAL

Amyloid nucleation score, -0.487 ± 0.9:
KRVKSPNILEMVNYAQ

Amyloid nucleation score, -0.192 ± 0.96:
VFIKLPVRSS

Amyloid nucleation score, 1.47 ± 0.11:
SAYWCIPIPNITIWFNFFLL

Amyloid nucleation score, 0.375 ± 0.22:
DSSSLRSNVLVTVCVLVSSI

Amyloid nucleation score, 1.51 ± 0.14:
VFKFALFTGTLLWLDHCVVS

Amyloid nucleation score, -0.348 ± 0.75:
SSNVPFVWCIPLMIAGIVGH

Amyloid nucleation score, 0.071 ± 0.29:
VTLTLEGLDRWVNQSEIAPS

Amyloid nucleation score, 0.088 ± 0.4:
LSSGG

Amyloid nucleation score, -0.702 ± 2.5:
VTRCCPMWD

Amyloid nucleation score, inactive:
FRCSG, PIPLIPFE, ACSLSWCHTGCY, MNCDDAVDWCFII, GYRSTCVRRFCECRCRDITA, WRIDDY, IAGTIRVFYVFKAYADSPTW, SVFKIV, WGESNVSTIV, STSYSSAL, KRSFGRVIRDIDEYRMVRVV, RFNCHRMCEHGDTLDMSYN, MIKPIIHFSGG, YSALRFSKSCGRPCCVYNSF, AFSIYHRIIIMRFRKYNIFA, YDLVIGCVMNVLFVLRCATR, VKPLSRY, ACFWLIDVTKWLTCYRRSSN, FWLLIIVF, GVIIRFWYWQDYAASLEYTC, FYELEIV, SVESECRDMFSFKGFCVCVK, CLGPKCATKDIFL, CQFVKVMCLHSYILRPSPPP, WTSDSRCYMNLKRCRGYTLF, TWGIG, GRKKWGLSQSCDKLPMGHTS, PSQHMRSARRQVGKSTSNEG, MSLPSSSQAYSCRWTWPRPA, GILIFTGYEDIFSCESDGSW, FGQGGALFLWKCMTYFILLG, YSTRVVRSTPWSKCSSPDME, IVCMLQFEVVVLHACRFESK, FWMIVYMNNSLI, IYAQELLSVANLLRFL, RYYDLVSLVQARDEVCTIHD, ASTRNVGYRVT, YLGLRKIWIYL, NCKMWRYKVESNCPGMICRC, RSRKVNWCSLFVVVSHVGWK, FFARMTALPLLQILYGSLRA, NTFWLGVRIDGVFGWATNLP, CRSEYYAF, NLMFVLHRTSWSNFCLKRKC, FSLSPIFWYAG, RSDNESGNV, YRLISCLVFISGRFSN, NADTYNRSDEKMTGRYWDRR, LHITYGSFCTLVFLIIVRWF, LGYDRQGLLTEVYRFSYIIL, SVRSGLARVSRTGMG, FLSIRFV, SELTEVTSITDWF, CGDLVGTSKYSTLLEWRS, NDASVLRNSPELSESFRGKW, YRPVQSVQIVHLLSILILVW, NIIKSTVIY, ANIFGVNTFGESRKHSIARC, FSSMANNIL, FFYEPGVPRFYFQLFLLLSF, LMDLNADKWHNAFTYSSVVE

Amyloid nucleation score, 2.06 ± 0.094:
CDNWLSYMWFYGNGAAPEGR
